Data reported in patent US20190023748A1 (NAVIGEN, published 2019).
Bridge positions count the residues as written; N and C are the ends. Square brackets hold non-standard residues; d marks the D form. Primed or numbered codes have the meaning given here. PEG4′ = not defined here

Key:
Test in all cases: cell-based or functional assay
[1] = biological target: HIV-1 gp41 of isolate KNH1144 (clade A) (HIV-1 isolate KNH1144)
[2] = biological target: HIV-1 gp41 of isolate KNH1209 (clade A) (HIV-1 isolate KNH1209)
[3] = biological target: HIV-1 gp41 of isolate KSM4030 (clade A) (HIV-1 isolate KSM4030)
[4] = biological target: HIV-1 gp41 of isolate 93RW024 (clade A) (HIV-1 isolate 93RW024)
[5] = biological target: HIV-1 gp41 of isolate CM235/GS020 (AE) (HIV-1 isolate CM235/GS020)
[6] = biological target: HIV-1 gp41 of isolate CM244 (AE) (HIV-1 isolate CM244)
[7] = biological target: HIV-1 gp41 of isolate CM240/GS022 (AE) (HIV-1 isolate CM240/GS022)
[8] = biological target: HIV-1 gp41 of isolate NI1052 (AE) (HIV-1 isolate NI1052)
[9] = biological target: HIV-1 gp41 of isolate NP1695 (AE) (HIV-1 isolate NP1695)
[10] = biological target: HIV-1 gp41 of isolate 55815 (AG) (HIV-1 isolate 55815)
[11] = biological target: HIV-1 gp41 of isolate CAM0002 (AG) (HIV-1 isolate CAM0002)
[12] = biological target: HIV-1 gp41 of isolate CAM0013 (AG) (HIV-1 isolate CAM0013)
[13] = biological target: HIV-1 gp41 of isolate CAM0014 (AG) (HIV-1 isolate CAM0014)
[14] = biological target: HIV-1 gp41 of isolate CAM0005 (AG) (HIV-1 isolate CAM0005)
[15] = biological target: HIV-1 gp41 of isolate CAM0008 (AG) (HIV-1 isolate CAM0008)
[16] = biological target: HIV-1 gp41 of isolate CAM1475MV (AG) (HIV-1 isolate CAM1475MV)
[17] = biological target: HIV-1 gp41 of isolate CAM1970LE (AG) (HIV-1 isolate CAM1970LE)
[18] = biological target: HIV-1 gp41 of isolate DJ263/GS003 (AG) (HIV-1 isolate DJ263/GS003)
[19] = biological target: HIV-1 gp41 of isolate 873 (clade B) (HIV-1 isolate 873)
[20] = biological target: HIV-1 gp41 of isolate 3343IN (clade B) (HIV-1 isolate 3343IN)
[21] = biological target: HIV-1 gp41 of isolate NP1538 (clade B) (HIV-1 isolate NP1538)
[22] = biological target: HIV-1 gp41 of isolate PBL288 (clade C) (HIV-1 isolate PBL288)
[23] = biological target: HIV-1 gp41 of isolate SE364/GS015 (clade C) (HIV-1 isolate SE364/GS015)
[24] = biological target: HIV-1 gp41 of isolate TZBD9/11 (clade C) (HIV-1 isolate TZBD9/11)
[25] = biological target: HIV-1 gp41 of isolate 301965 (clade D) (HIV-1 isolate 301965)
[26] = biological target: HIV-1 gp41 of isolate 93UG065 (clade D) (HIV-1 isolate 93UG065)
[27] = biological target: HIV-1 gp41 of isolate D26830M4 (clade D) (HIV-1 isolate D26830M4)
[28] = biological target: HIV-1 gp41 of isolate E08364M4 (clade D) (HIV-1 isolate E08364M4)
[29] = biological target: HIV-1 gp41 of isolate J32228M4 (clade D) (HIV-1 isolate J32228M4)
[30] = biological target: HIV-1 gp41 of isolate KER2008 (clade A) (HIV-1 isolate KER2008)

B1: CPT31 (cholesterol-PIE12-2-trimer with PEG32 fourth-arm spacer) (peptide)
peptide: Ac-[dH][dP][dC][dD][dY][dP][dE][dW][dQ][dW][dL][dC][dE][dL]G[PEG4′]K-NH2
modifications: disulfide 3-12 (inferred); not fully specified (some residues); numbers in words are those of the source; also: PIE12-2 trimer on scaffold, fourth arm PEG28 + PEG4 with cholesteryl carbamate
[1]
  1 nM inhibition: 78.2%
  10 nM inhibition: 80.6%
[2]
  1 nM inhibition: 94.3%
  10 nM inhibition: 95.2%
[3]
  1 nM inhibition: 93.6%
  10 nM inhibition: 95.6%
[4]
  1 nM inhibition: 97%
  10 nM inhibition: 99.3%
[5]
  1 nM inhibition: 81.8%
  10 nM inhibition: 98.7%
[6]
  1 nM inhibition: 95.4%
  10 nM inhibition: 99.5%
[7]
  1 nM inhibition: 83.8%
  10 nM inhibition: 95%
[8]
  1 nM inhibition: 98%
  10 nM inhibition: 99.7%
[9]
  1 nM inhibition: 95.7%
  10 nM inhibition: 97%
[10]
  1 nM inhibition: 98.8%
  10 nM inhibition: 99.5%
[11]
  1 nM inhibition: 95.6%
  10 nM inhibition: 99.7%
[12]
  1 nM inhibition: 98.4%
  10 nM inhibition: 99.7%
[13]
  1 nM inhibition: 98.8%
  10 nM inhibition: 99.5%
[14]
  1 nM inhibition: 98.4%
  10 nM inhibition: 99.8%
[15]
  1 nM inhibition: 96.8%
  10 nM inhibition: 99.7%
[16]
  1 nM inhibition: 98.3%
  10 nM inhibition: 98.8%
[17]
  1 nM inhibition: 97.3%
  10 nM inhibition: 98.5%
[18]
  1 nM inhibition: 96.7%
  10 nM inhibition: 99.2%
[19]
  1 nM inhibition: 93.6%
  10 nM inhibition: 98.7%
[20]
  1 nM inhibition: 97.6%
  10 nM inhibition: 99.1%
[21]
  1 nM inhibition: 95%
  10 nM inhibition: 99.4%
[22]
  1 nM inhibition: 3%
  10 nM inhibition: 12%
[23]
  1 nM inhibition: 91.6%
  10 nM inhibition: 97.7%
[24]
  1 nM inhibition: 84.7%
  10 nM inhibition: 85.4%
[25]
  1 nM inhibition: 96.1%
  10 nM inhibition: 97.7%
[26]
  1 nM inhibition: 93.7%
  10 nM inhibition: 94.4%
[27]
  1 nM inhibition: 95.3%
  10 nM inhibition: 98.5%
[28]
  1 nM inhibition: 50.7%
  10 nM inhibition: 58.6%
[29]
  1 nM inhibition: 96.1%
  10 nM inhibition: 98%
[30]
  1 nM inhibition: 84.1%
  10 nM inhibition: 85.3%
